# T1: human TREM2 (human) (UniProt Q9NZC2)
# T1 sequence (looked up): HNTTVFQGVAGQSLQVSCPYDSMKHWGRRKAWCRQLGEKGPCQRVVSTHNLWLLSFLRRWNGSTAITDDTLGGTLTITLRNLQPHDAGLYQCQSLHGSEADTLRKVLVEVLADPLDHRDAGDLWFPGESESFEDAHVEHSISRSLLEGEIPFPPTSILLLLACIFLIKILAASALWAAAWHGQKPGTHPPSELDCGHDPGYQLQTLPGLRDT
# Experiments:
# human TREM2 (human) [1] = molecular target: T1, human TREM2 (human); experiment: 2nd screen, 10 nM Ab
# human TREM2 (human) [2] = molecular target: T1, human TREM2 (human); experiment: 1st screen, 10 nM Ab
# human TREM2 (human) [3] = molecular target: T1, human TREM2 (human); experiment: 2nd screen, 2 nM Ab
Binder,Binding Signal (fold over 6E7 parental antibody) (human TREM2 (human) [1]) [fold],Binding Signal (fold over 6E7 parental antibody) (human TREM2 (human) [2]) [fold],Binding Signal (fold over 6E7 parental antibody) (human TREM2 (human) [3]) [fold]
"6E7 variant V36 (antibody, V domains shown) VH: EVQLVQSGAEVKKPGESLKISCKGSGYSFTSYWLAWVRQMPGKGLEWMGIIYPGDSDTRYSPSFQGQVTISADKSISTAYLQWSSLKASDTAMYFCARSRTFYYDSSDYFDYWGQGTLVTVSS VL: DIQMTQSPSSVSASVGDRVTITCRASQGISSWLAWYQQKPGKAPKLLIYAASSRQNGVPSRFSGSGSGTDFTLTISSLQPEDFATYFCQQADSYPRTFGQGTKLEIK",3.44,3.38,4
"6E7 variant V37 (antibody, V domains shown) VH: EVQLVQSGAEVKKPGESLKISCKGSGYSHTSYWIAWVRQMPGKGLEWMGIIYPGDSDTRYSPSFAGQVTISADKSISTAYLQWSSLKASDTAMYFCARSRTFYYDSSDYFDYWGQGTLVTVSS VL: DIQMTQSPSSVSASVGDRVTITCRASQGISSWLAWYQQKPGKAPKLLIYAASSLQWGVPSRFSGSGSGTDFTLTISSLQPEDFATYFCQQADSYPRTFGQGTKLEIK",3.49,3.46,3.69
"6E7 variant V38 (antibody, V domains shown) VH: EVQLVQSGAEVKKPGESLKISCKGSGYSFGSYWIAWVRQMPGKGLEWMGIIYPGDSDVRYSPSFQGQVTISADKSISTAYLQWSSLKASDTAMYFCARQRTFYYDSSDYFDYWGQGTLVTVSS VL: DIQMTQSPSSVSASVGDRVTITCRASQGISSWLAWYQQKPGKAPKLLIYAASSRQNGVPSRFSGSGSGTDFTLTISSLQPEDFATYFCQQADSHPRTFGQGTKLEIK",4.36,4.34,3.44
"6E7 variant V39 (antibody, V domains shown) VH: EVQLVQSGAEVKKPGESLKISCKGSGYSFGSYWIAWVRQMPGKGLEWMGIIYPGDSDTRYNPSFQGQVTISADKSISTAYLQWSSLKASDTAMYFCARGRTFYYDSSDYFDYWGQGTLVTVSS VL: DIQMTQSPSSVSASVGDRVTITCRASQGISSWLAWYQQKPGKAPKLLIYAASSLVNGVPSRFSGSGSGTDFTLTISSLQPEDFATYFCQQADSSPRTFGQGTKLEIK",5.81,6.15,5.11
"6E7 variant V40 (antibody, V domains shown) VH: EVQLVQSGAEVKKPGESLKISCKGSGYSFGSYWIAWVRQMPGKGLEWMGIIYPGDSDVRYSPSFQGQVTISADKSISTAYLQWSSLKASDTAMYFCARQRTFYYDSSDYSDYWGQGTLVTVSS VL: DIQMTQSPSSVSASVGDRVTITCRASQGISSWLAWYQQKPGKAPKLLIYAASSLQLGVPSRFSGSGSGTDFTLTISSLQPEDFATYFCQQADRFPRTFGQGTKLEIK",4.16,4.48,3.41
"6E7 variant V41 (antibody, V domains shown) VH: EVQLVQSGAEVKKPGESLKISCKGSGYSFTSYWIAWVRQMPGKGLEWMGTIYPGDSDTRYSPSFQGQVTISADKSISTAYLQWSSLKASDTAMYFCARQRTFYYDSSDYFDYWGQGTLVTVSS VL: DIQMTQSPSSVSASVGDRVTITCRASQGISSWLAWYQQKPGKAPKLLIYAASSLQNGVPSRFSGSGSGTDFTLTISSLQPEDFATYFCQQADSFPRTFGQGTKLEIK",1.72,1.74,0.58
"6E7 variant V48 (antibody, V domains shown) VH: EVQLVQSGAEVKKPGESLKISCKGSGYSFGSYWIAWVRQMPGKGLEWMGIIYPGDSDVRYSPSFQGQVTISADKSISTAYLQWSSLKASDTAMYFCARMRTFYYDSSDYFDYWGQGTLVTVSS VL: DIQMTQSPSSVSASVGDRVTITCRASQGISSWLAWYQQKPGKAPKLLIYAASSLQTGVPSRFSGSGSGTDFTLTISSLQPEDFATYFCQQADSLPRTFGQGTKLEIK",2.54,2.42,2.3
"6E7 variant V49 (antibody, V domains shown) VH: EVQLVQSGAEVKKPGESLKISCKGSGYSFNSYWIAWVRQMPGKGLEWMGTIYPGDSDTRLSPSFQGQVTISADKSISTAYLQWSSLKASDTAMYFCARSRTFYYDSSDYFDYWGQGTLVTVSS VL: DIQMTQSPSSVSASVGDRVTITCRASQGISSWLAWYQQKPGKAPKLLIYAASSRQNGVPSRFSGSGSGTDFTLTISSLQPEDFATYFCQQADSYPRTFGQGTKLEIK",6.58,6.51,5.02
"6E7 variant V50 (antibody, V domains shown) VH: EVQLVQSGAEVKKPGESLKISCKGSGYSFGSYWIAWVRQMPGKGLEWMGVIYPGDSDTRYSPSFQGQVTISADKSISTAYLQWSSLKASDTAMYFCARQRTFYYDSSDYLDYWGQGTLVTVSS VL: DIQMTQSPSSVSASVGDRVTITCRASQGISSWLAWYQQKPGKAPKLLIYAASSRQNGVPSRFSGSGSGTDFTLTISSLQPEDFATYFCQQADSLPRTFGQGTKLEIK",4.16,4.1,3.39
"6E7 variant V51 (antibody, V domains shown) VH: EVQLVQSGAEVKKPGESLKISCKGSGYSFTSYWIAWVRQMPGKGLEWMGIIYPGDSDVRYSPSFQGQVTISADKSISTAYLQWSSLKASDTAMYFCARGRTFYYDSSDYFDNWGQGTLVTVSS VL: DIQMTQSPSSVSASVGDRVTITCRASQGISSWLAWYQQKPGKAPKLLIYAASSRQNGVPSRFSGSGSGTDFTLTISSLQPEDFATYFCQQADSFPRTFGQGTKLEIK",3.18,2.81,1.83
"6E7 variant V53 (antibody, V domains shown) VH: EVQLVQSGAEVKKPGESLKISCKGSGYSFTSYWIAWVRQMPGKGLEWMGIIYPGDSDTRYSPHFQGQVTISADKSISTAYLQWSSLKASDTAMYFCARQRTFYYDSSDYFDYWGQGTLVTVSS VL: DIQMTQSPSSVSASVGDRVTITCRASQGISSWLAWYQQKPGKAPKLLIYAASSLQNGVPSRFSGSGSGTDFTLTISSLQPEDFATYFCQQADSFPRTFGQGTKLEIK",1.17,1.25,0.66
"6E7 variant V60 (antibody, V domains shown) VH: EVQLVQSGAEVKKPGESLKISCKGSGYHFTSYWIAWVRQMPGKGLEWMGIIYPGDSDVRYSPSFQGQVTISADKSISTAYLQWSSLKASDTAMYFCARQRTFYYDSSDYSDYWGQGTLVTVSS VL: DIQMTQSPSSVSASVGDRVTITCRASQGISSWLAWYQQKPGKAPKLLIYAASSLQRGVPSRFSGSGSGTDFTLTISSLQPEDFATYFCGQADSFPRTFGQGTKLEIK",3.63,3.26,3.35
"6E7 variant V61 (antibody, V domains shown) VH: EVQLVQSGAEVKKPGESLKISCKGSGYSFSSYWIAWVRQMPGKGLEWMGIIYPGDSDTRYNPSFQGQVTISADKSISTAYLQWSSLKASDTAMYFCARGRTFYYDSSDYFDYWGQGTLVTVSS VL: DIQMTQSPSSVSASVGDRVTITCRASQGISSWLAWYQQKPGKAPKLLIYAASSLVNGVPSRFSGSGSGTDFTLTISSLQPEDFATYFCQQADSLPRTFGQGTKLEIK",5.22,5.08,3.63
"6E7 variant V1 (antibody, V domains shown) VH: EVQLVQSGAEVKKPGESLKISCKGSGYSFTSSWIAWVRQMPGKGLEWMGIIYPGDSDTRYSPSFQGQVTISADKSISTAYLQWSSLKASDTAMYFCARSRTFYYDSSDYFDYWGQGTLVTVSS VL: DIQMTQSPSSVSASVGDRVTITCRASQGISSWLAWYQQKPGKAPKLLIYAASSLTNGVPSRFSGSGSGTDFTLTISSLQPEDFATYFCQQADSYPRTFGQGTKLEIK",1.92,1.68,1.29
"6E7 variant V62 (antibody, V domains shown) VH: EVQLVQSGAEVKKPGESLKISCKGSGYSFGSYWIAWVRQMPGKGLEWMGIIYPGDSDTRYAPSFQGQVTISADKSISTAYLQWSSLKASDTAMYFCARQRTFYYDSSGYFDYWGQGTLVTVSS VL: DIQMTQSPSSVSASVGDRVTITCRASQGISSWLAWYQQKPGKAPKLLIYAASSLQRGVPSRFSGSGSGTDFTLTISSLQPEDFATYFCGQADSFPRTFGQGTKLEIK",2.89,2.49,1.87
"6E7 variant V63 (antibody, V domains shown) VH: EVQLVQSGAEVKKPGESLKISCKGSGYSFRSYWIAWVRQMPGKGLEWMGIIYPGDSDTRYSPSFQGQVTISADKSISTAYLQWSSLKASDTAMYFCARSRTFYYDSSDYFDYWGQGTLVTVSS VL: DIQMTQSPSSVSASVGDRVTITCRASQGISSWLAWYQQKPGKAPKLLIYAASSLQRGVPSRFSGSGSGTDFTLTISSLQPEDFATYFCQQADRFPRTFGQGTKLEIK",3.71,3.76,4.91
"6E7 variant V64 (antibody, V domains shown) VH: EVQLVQSGAEVKKPGESLKISCKGSGYSFQSYWIAWVRQMPGKGLEWMGIIYPGDSDTRYSPSFQGQVTISADKSISTAYLQWSSLKASDTAMYFCARGRTFYYDSSDYFDYWGQGTLVTVSS VL: DIQMTQSPSSVSASVGDRVTITCRASQGISSWLAWYQQKPGKAPKLLIYAASSLANGVPSRFSGSGSGTDFTLTISSLQPEDFATYFCQQADSYPRTFGQGTKLEIK",5.48,5.41,4.88
